This experiment addresses T1, IFN-γR1 (ligand-binding chain of the interferon-gamma receptor), fused to a fluorescent protein (UniProt P15260 18-489).
T1 sequence (looked up): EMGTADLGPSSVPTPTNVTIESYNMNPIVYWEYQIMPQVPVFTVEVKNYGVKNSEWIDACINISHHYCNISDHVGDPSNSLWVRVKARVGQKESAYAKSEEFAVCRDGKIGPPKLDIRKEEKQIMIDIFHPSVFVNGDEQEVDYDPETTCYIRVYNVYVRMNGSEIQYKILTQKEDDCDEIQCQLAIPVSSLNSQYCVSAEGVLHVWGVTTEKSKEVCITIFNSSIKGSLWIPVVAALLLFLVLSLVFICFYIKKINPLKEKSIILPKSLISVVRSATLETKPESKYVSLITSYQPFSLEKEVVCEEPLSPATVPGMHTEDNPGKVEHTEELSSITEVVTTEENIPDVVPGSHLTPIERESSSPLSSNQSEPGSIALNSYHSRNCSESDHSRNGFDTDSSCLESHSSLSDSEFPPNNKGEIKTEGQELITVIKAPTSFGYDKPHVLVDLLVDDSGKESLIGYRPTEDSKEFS
Kind of experiment: FRET or BRET.

B1: IFN-γR2 (accessory chain of the interferon-gamma receptor), fused to a fluorescent protein (receptor, UniProt P38484 22-337, looked up)
chain: APPDPLSQLPAPQHPKIRLYNAEQVLSWEPVALSNSTRPVVYQVQFKYTDSKWFTADIMSIGVNCTQITATECDFTAASPSAGFPMDFNVTLRLRAELGALHSAWVTMPWFQHYRNVTVGPPENIEVTPGEGSLIIRFSSPFDIADTSTAFFCYYVHYWEKGGIQQVKGPFRSNSISLDNLKPSRVYCLQVQAQLLWNKSNIFRVGHLSNISCYETMADASTELQQVILISVGTFSLLSVLAGACFFLVLKYRGLIKYWFHTPPSIPLQIEEYLKDPTQPILEALDKDSSPKDDVWDSVSIISFPEKEQEDVLQTL
As to B1, the “fold higher apparent affinity than IFN-γR1 with DAF-ToFP” value is approximately 7 fold.

The record behind these values is paper PMC3868223 (Cytokine, 2013).
